Test results: patent publication US12214008B2, “Protein interfaces” (SyntheX, Inc., priority 2016, dated 2025)
Changes are numbered by the printed parent chain.

Experiments:
Type in all cases: binding
[1] = biological target: T1, S.cerevisiae Rad51 (1-278) + H.sapiens Rad51 (218-339) (UniProt P25454+Q06609); experiment: Y2H assay, RAD51 hybrid constructs; set-up: key: cells having the interaction would survive (+); cells not having the interaction would die (−) on selective media (−ADE, −HIS)
T1 construct: S.cerevisiae Rad51 (1-278) +; H.sapiens Rad51 (218-339); expressed in transfected cells
T1 sequence (P25454 1-278): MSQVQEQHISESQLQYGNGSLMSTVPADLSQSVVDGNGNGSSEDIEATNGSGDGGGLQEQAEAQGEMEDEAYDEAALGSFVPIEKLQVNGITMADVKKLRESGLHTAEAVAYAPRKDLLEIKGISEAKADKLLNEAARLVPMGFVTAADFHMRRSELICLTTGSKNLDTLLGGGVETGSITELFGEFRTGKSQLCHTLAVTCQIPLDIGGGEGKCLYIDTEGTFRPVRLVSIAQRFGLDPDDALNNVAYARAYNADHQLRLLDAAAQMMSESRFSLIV
T1 sequence (Q06609 218-339): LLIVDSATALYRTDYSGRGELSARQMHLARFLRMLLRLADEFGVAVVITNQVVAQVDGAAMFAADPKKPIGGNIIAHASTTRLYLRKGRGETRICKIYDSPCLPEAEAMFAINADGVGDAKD
Method: (§1) RAD51-binding peptides were tested for ability to bind RAD51 of several different species using a “conventional” Y2H assay, where interaction between the two-hybrid pair drove expression of ADE2 and HIS genes. In this Y2H assay the two-hybrid pair was RAD51 and the compound 5 peptide sequence (SEQ ID NO.: 5), so that cells having the interaction would survive (+) and cells not having the interaction would die (−) on selective media (−ADE, −HIS).
(§2) Based on sequence comparisons of S. cerevisiae and H. sapiens RAD51, multiple cerevisiae-sapiens hybrid constructs of RAD51 were constructed and tested for their ability to bind RAD51-binding peptide in the same RAD51/SEQ ID NO.: 5 hybrid system described above.

[2] = biological target: T2, S.cerevisiae Rad51 (1-250) + H.sapiens Rad51 (190-339) (UniProt P25454+Q06609); experiment: Y2H assay, RAD51 hybrid constructs; set-up: key: cells having the interaction would survive (+); cells not having the interaction would die (−) on selective media (−ADE, −HIS)
T2 construct: S.cerevisiae Rad51 (1-250) +; H.sapiens Rad51 (190-339); expressed in transfected cells
Method: as §1, §2

Rad51 (F86E; A89E) = biological target: T3, Rad51 (F86E; A89E) (Homo sapiens, UniProt Q06609, A89E/F86E); experiment: Y2H assay, human RAD51 mutants; set-up: key: (+) denotes a successful interaction between the two Y2H baits; (−) denotes a lack of interaction
T3 construct: expressed in transfected cells
T3 sequence (Q06609 1-339 F86E/A89E): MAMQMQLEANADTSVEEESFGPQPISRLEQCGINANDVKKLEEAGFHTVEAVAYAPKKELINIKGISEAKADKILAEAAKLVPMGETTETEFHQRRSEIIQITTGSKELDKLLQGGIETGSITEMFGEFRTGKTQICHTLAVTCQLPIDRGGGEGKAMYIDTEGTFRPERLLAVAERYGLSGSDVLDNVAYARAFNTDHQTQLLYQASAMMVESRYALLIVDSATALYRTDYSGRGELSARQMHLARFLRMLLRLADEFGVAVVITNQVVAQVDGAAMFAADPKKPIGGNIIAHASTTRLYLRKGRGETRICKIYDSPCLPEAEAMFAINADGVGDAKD
Method: (§3) The ability of peptides to bind human RAD51 with various mutations was then tested by Y2H assay. […] While mutations affecting BRCA2 binding had no effect on peptide binding, mutations that affected RAD51-AP1 binding did disrupt peptide binding. As these mutations were at residues 202, 205, and 206, they were consistent with the previous fusion data showing binding somewhere in the 190-218 region, and indicated the peptide SEQ ID NO.: 5 contacts at least residues 202, 205, and 206 of RAD51.

[3] = biological target: T4, Rad51 (S208L; A209E; M210A) (Homo sapiens, UniProt Q06609, A209E/M210A/S208L); experiment: Y2H assay, human RAD51 mutants; set-up: key: (+) denotes a successful interaction between the two Y2H baits; (−) denotes a lack of interaction
T4 construct: expressed in transfected cells
T4 sequence (Q06609 1-339 S208L/A209E/M210A): T3 sequence (Q06609 1-339 F86E/A89E) with E86F, E89A, S208L, A209E, M210A
Method: as §3

[4] = biological target: T5, Rad51 (Q202R, Y205D, Q206A) (Homo sapiens, UniProt Q06609, Q202R/Q206A/Y205D); experiment: Y2H assay, human RAD51 mutants; set-up: key: (+) denotes a successful interaction between the two Y2H baits; (−) denotes a lack of interaction
T5 construct: expressed in transfected cells
T5 sequence (Q06609 1-339 Q202R/Y205D/Q206A): T3 sequence (Q06609 1-339 F86E/A89E) with E86F, E89A, Q202R, Y205D, Q206A
Method: as §3

Rad51 (A190L; A192L) = biological target: T6, Rad51 (A190L; A192L) (Homo sapiens, UniProt Q06609, A190L/A192L); experiment: Y2H assay, human RAD51 mutants; set-up: key: (+) denotes a successful interaction between the two Y2H baits; (−) denotes a lack of interaction
T6 construct: expressed in transfected cells
T6 sequence (Q06609 1-339 A190L/A192L): T3 sequence (Q06609 1-339 F86E/A89E) with E86F, E89A, A190L, A192L
Method: as §3

KRRRRRRRKRLGVRLRVSRML [SEQ ID NO.: 5]
SEQ ID NO.: 5 Binding [1]: −
SEQ ID NO.: 5 Binding [2]: +
Y2H interaction with SEQ ID NO.: 5 (Rad51 (F86E; A89E)): +
Y2H interaction with SEQ ID NO.: 5 [3]: +
Y2H interaction with SEQ ID NO.: 5 [4]: −
Y2H interaction with SEQ ID NO.: 5 (Rad51 (A190L; A192L)): +
